One substance from patent US20140235490A1 can be followed below.

In this assay the target is Firefly luciferase fragment FFL (265-550) (Photinus pyralis) [luciferase: P08659]. Put plainly: cell-based or functional assay.
Firefly luciferase fragment FFL (265-550) (Photinus pyralis) [luciferase: P08659], sequence (P08659 265-550): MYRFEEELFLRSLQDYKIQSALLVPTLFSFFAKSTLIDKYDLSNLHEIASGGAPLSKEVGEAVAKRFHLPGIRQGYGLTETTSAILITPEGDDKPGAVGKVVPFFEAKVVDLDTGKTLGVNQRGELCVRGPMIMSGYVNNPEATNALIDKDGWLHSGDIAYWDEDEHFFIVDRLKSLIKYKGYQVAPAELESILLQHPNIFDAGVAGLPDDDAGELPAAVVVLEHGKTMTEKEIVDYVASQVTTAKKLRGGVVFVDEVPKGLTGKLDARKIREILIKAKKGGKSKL

Firefly luciferase fragment FFL (1-478), sequence (P08659 1-478): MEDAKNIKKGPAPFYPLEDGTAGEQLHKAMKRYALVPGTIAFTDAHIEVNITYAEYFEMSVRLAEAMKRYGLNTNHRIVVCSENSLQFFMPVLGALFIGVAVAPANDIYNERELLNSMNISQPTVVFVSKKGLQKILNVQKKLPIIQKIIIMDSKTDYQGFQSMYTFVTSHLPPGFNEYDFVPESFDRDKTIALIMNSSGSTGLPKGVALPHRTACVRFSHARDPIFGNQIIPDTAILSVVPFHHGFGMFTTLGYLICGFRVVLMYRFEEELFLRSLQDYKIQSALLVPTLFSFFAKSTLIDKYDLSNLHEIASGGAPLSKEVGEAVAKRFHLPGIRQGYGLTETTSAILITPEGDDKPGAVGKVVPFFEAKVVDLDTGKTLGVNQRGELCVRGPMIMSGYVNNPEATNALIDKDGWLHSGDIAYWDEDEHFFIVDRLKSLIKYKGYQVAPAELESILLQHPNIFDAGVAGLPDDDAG

In the case of “Firefly luciferase fragment FFL (1-478) (from UniProt P08659 1-478)”, the luciferase activity after recombination of the fragments was < 4%.
